Target: hnRNP A1 spin-labelled at 231 (Homo sapiens, UniProt P09651-2 1-320, M1G;C43S;C175A;S231C)
Assay: CW EPR

B1: RNAga (3' AG motif mutated) (ssRNA)
RNA: CCAGCAUUAUGAAAAUGA
B1: binds.
